Literature values, collected in PMC10412679.

Target: CD47 (Homo sapiens) (UniProt Q08722)

Kd: 8 nM
Substance: magrolimab
